Reference: the nanobody polyreactivity screen of Harvey et al. (2022)

Assay: yeast display, Sf9 membrane polyspecificity reagent, FACS + sequencing; frameworks hold sequencing errors
Method in brief: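 Nanobodies came from a synthetic yeast display library in Saccharomyces cerevisiae BJ5465, induced with galactose for 36–48 hours and stained for 1 hour at 4 °C with 10% biotinylated, detergent-solubilized Sf9 membrane reagent. Cells were enriched on streptavidin microbeads and then FACS-sorted, with low and high (top ~1%) gates set on anti-HA fluorescence for expression and streptavidin fluorescence for reagent binding. Each polyreactivity label reflects the gate a clone came from. Genes were amplified by colony PCR, sequenced by MiSeq 2 × 250 and filtered by CDR length.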

Sequence | polyreactivity (PSR sort gate)
QDQLVESGVGLVQAGGSLRLSCAASGIIIYRNTLGWYRQAPGKERELVAAIRRGGNTYYADSVKGRFTISRDNAKNTVYLQMNSLKPEDSAVYYCAASAGPRASYYYWGQGTQVTVSS | high polyreactivity
QDQLVESRGALVQAGGSLRLSCAASGIIFGRNAMGWYRQAPRKERELVAGITRRGARTYYADSVKGRFTISRDNAKNTVYFQMNILKPEDTAVYYCAAVGPYRWYDYWGQGTQVTVSS | high polyreactivity
QDQLVESRGGEVQAGGSRRLRCAASGLTFLYNAMGWYRQAPGKERELVAAISQSAGSTYYADSVKGRFTISRDTAKNTVYLQLNSLKPEETAVYYFAADWDTPDLVIYDYWGQGTQVTLSS | low polyreactivity
QDQLVESRGGIVQAVRSLRLSSAASGSTYRNYAMGWYRQAPGKERELVAAISGSGGRTNYADSVKGRFTISRDNAKNTVYLQMNSLKQEDTAVYYCNARFPDWALSEISNSTTYGYWGQGTQVNVSS | low polyreactivity
QDQLVESRGGLVQAGGSLRLSCAASGFTFGRYAMGWYRQAPGKERELVAVITSSGGRTYYADSVKGRFTISRDNAKNTVYLQMNSLKPEDTAVYYCHKYPLRLYGYDYWGQGTQVTVSS | high polyreactivity
QDQLVESRGGLVQAGGSLRLSCAASGRIFLTNAMGWDRKAPGKERELVAAITSGGSTYYADSVKGRFTISRDNAKNTVFLQMNSVKPEDTAVYYCNADTDRYCPYEYDYWGQGTQVTVSS | low polyreactivity
QDQLVESVGGLDQAGGSLRLSCAASGFIFGANAIGWYRQATGKEREMVAAISSSGGRYELRRSVKGRFTISRDNAKNTVYLQMNSLKPEDTAVYYCATPYPTGRPRHYSWGQGTQVTVSS | high polyreactivity
QDQLVESVGGLVQAGGSLRLSCAASGRTFGRYPMGSYIEAPGKEREMVAAIRSGGSTYYADSVKGRFTISRDNAKNTVYLLMNSLKPEDTAVYYCAADIDRHLTGFAYYRLDYWGQGTQVTVSS | low polyreactivity
QDQLVESVGGLVQAGVSLRLSCAASGSTLRKYAMGWYRQAPGKESELVAAISNSGGGTYYADSVKGRFTISRDNAKNTVYLQMNSLKPEDTAVYYCAARYGPSYGYGLYYPRRDYWGQGTQVTVSS | high polyreactivity
QDQLVESWGGLVQAGGSLRLICAASGFIFRSYAMGWYRQAPGKERELVAAITYSGGRTYYADSVKGRFTISRDNAKNTVYLQMNSLKPEDTAVYYCAAETRVDFYWGQGTQVTVSS | high polyreactivity
QDQLVESWGGLVQAGGSLRLSCAASGFTFRNNAMGWYRHAPWKERDLVASITARGGSTYYADTVKGRFTISRDNAINTVYVQLNILKTEDTAVYYSATDDYTWRRHPWYAGYDSWGQGTQVTVSS | low polyreactivity
QDQLVETGGGLVQAGGSLRLSCAASGRIFAYNSMGWYRQAPGKERELVAAISWSGSSTYYADSVKGRFTISRDNAKNTVYLHMNCLKPEDTAVYYCAATPWYYYSTSYAYYYWGQGTQVTVSS | high polyreactivity
QDQLVHSGGGLVQSGGSLRISCAASGFTFYLYGMGRYRQAPGKERDLDAAIDSTGSTNYADSVKGRFTISRDNAKNTVYLQMNSLKPEDTAVYYCAADFYLYYFRSPYDYWGQGTQVTVSS | high polyreactivity
QDQLVQSAGGLVQAGGSLRLSCAASGRTIRAYAMGWYRQAPGKEREFVAAITWGDGSTYYADSVNGRFTISRDNAKNTVYLQMKSLKPEDTAVYYCATVQSCRVRTYDYWGQGTQVSVSS | high polyreactivity
QDQLVQSGGGLVQAGGSLRLSCAASGFTFYYYAMGWYRQAPGKETELVAGISKSGGITYYADSVKGRFTISRDNAKNTVYLQMNSLKPEDTAVYYCAAAAWYQFFLYRYTYEYWGQGTQVTVSS | low polyreactivity
QDQLVVSGGGLVQAGGSLRLSCAASGFIFYRYSMGWYSQEPGKEREVVASITRSGGSTYYAASVKGRFTISRDKAKNTLYLPMNSLKPVETAVYYCATAIRYFVSYDYWGQGTEVTVSS | high polyreactivity
QDQRVDSGGGLVQAGGSLRLSCAASGSNFQWNAMGSYRHATGKERELVAAISGTGGNTYYADSVKGRFTISRDNAKNTVYLQMNSLKREDTAVYYCNTDYGEYYSWYLQWWYIPFDYWGQGTQVTVSS | low polyreactivity
QDQRVESGGGLDQAGGSLRLSCAASGSIFLVYAMGWYRQAPGKEMEFVAAITWSGGSTYYADSVKGRFTISRDIAKNTVYLQMNSLKPEDTAVYYCAVEIWIPTWYGLSGEYDYWGHGTQVTVSS | low polyreactivity
QDQRVESGGGLVQAGGSLRLSCAASVRTVNFNVMGWYSQARGKERELVAAISKSTGSTFYADSVKGRFTMSRDNAKNTGYLQKNSLKPEDTAVYYCIAVRCYGSGRGYGYCGQGTQVTVSS | high polyreactivity
QEQLLDSGGGLVQAGGSLRLSCAASGYFSSHILSWYRQGPGKVREFVDTITDGGTTDYADSVKGRFTISRDNAKNTVYLQMNSLNPQDTAVYYCAAVATYSYHFGYWGHGTQVTVSS | high polyreactivity
QEQLLESGGALVQAGGSLRLSCMASGSILGDRMSWYRQAPGKEHELVATIYDGGITYYADSMKGRFTISRDNAKNTVYLQMNSLRPEDTAVYYCGASFEGYRYHVYCGQGTQVTVSS | low polyreactivity
QEQLQESGGGLVQACGSLRLSCAASGYIFSHQYMGWYRQAPGKERELVASISPGATTNYADSVKGRFTISRDNAKNTVYLQMNSLKPEDTAVYYFAVYKILDRRLSYWGQGTQVTVSC | high polyreactivity

Sequence | polyreactivity (PSR sort gate)
QEQLQESGGGLVQAGGSLRLSCAASGSISQAWYMGWYRQAPGKERELVAAINVGAITYYADSVKGRFSISRDNAKNTVYLPMNSLTPEDTGVYYCAVDQYSEAYYDYWGQGTQATVSS | high polyreactivity
QEQLQESGGGLVQAGGSLRLSCAASGTISYAGPMGWYRQAPGKEREFVAGIGVGSNTNYADSVKGRYTIIRDNAKNTVYLQMNSLKPEDTAVYYCAVGGYAPLGRPYWGQGTQVTVSS | low polyreactivity
QEQLQESGGGLVQAGGSLYLSCAASGNIFEYYDMGWYRQGKERELVAGISYGTNTNYAVSVKGRFTISRDIAKNTVYLQMNSLKPEDTAVYYCARRIGHGSRPYWLETWLYPYDYWGQGTQVTVSS | low polyreactivity
QEQLQESGGGLVQAGGTLRLSCSASGTISPLPAMGWYRQSPGKEREFVAGIDTGAITNYADSVKGRFTISRDNAKNTVYLQMNSLKPEDTAVYYCAVFPAAYDYYERYYTYWGQGTQVTVCS | low polyreactivity
QEQLQESGGGQVQAGGSLLLSCAASGNIIPSYYMGWYRQAPGKERELVAAITYGTSTNYADSVKGRFTISRDNAKNTVFLQMISLKPVDTAVYYCAVDFNYGDPLVHWGQGTQVTVSS | high polyreactivity
QEQLQESGGGQVQAGGSLLLSCAASGNIIRYYYMGWYRQAPGKERELVAAITYGTSTNYADSVKGRFTISRDNAKNTVYLQMNSLKPEDTAVYYCAVVVNYGDPLDNWGQGTQVTVSS | high polyreactivity
QEQLQETGGGLVQAGGSLRLICASSGSIFFVYGMGWSRQAPGKERELVAGINAGTNTNYADSVRGRFTISRDNAKYTVHLQMNSLKPEDTAVYYCAADGNGYQAHEYWGQGTQVTVSS | high polyreactivity
QEQLVESGGGLVQAGGSLRLSCAASGNTFSYNAMGWYRQAPGKEREVVAAISSRGVRTYYADSVKGRFTISRDNAKNTVYLQMNSLKPEDTAVYYCAADLWDWAYDYWGQGTQVTVSS | high polyreactivity
QEQQQESGGGQLQAGGSLLLSCAASGNIIRYYYMGWYRQAPGKERELVAAITYGTSTNYADSVKGRFTISRDNAKYSVYLQMISLKPEDTAVYYCAVDVNYGDPLDNWGQGTQVTVSS | high polyreactivity
QFHHVESGGGLVQAGGSLRLTCAATGIIILGNAKGWYRQAPGKERELVATITSGGTTNYADSVKGRFTISRDNAKNTVYLQMNSLIPEDTAVYYCNKRSYDQQEYEYDYWGQGTQVTVSS | low polyreactivity
QFHLVESGGGIVQAGGSLRLSCAASGFTFAYYAMGRNRQAPGKERELVAAISSGGRTYYADSVKGRFTISRDNAQNTVYLQLNSLKPEDTAVYYCKTVPYYDALTYPFDSWGQGTQVTVSS | low polyreactivity
QFHLVESGGGLVQAGGSLRLSCAASGRNLVRYAMGCYRQAPGKERELVAAISKSGGSTYYADSVKGRFTISRDNAKNTVYLQMNSLKPEDTAVYYSNALVRRRPGYIRYDYWGQGTQVTVSS | low polyreactivity
QFHLVESGGGLVQAGGSLRLSCAASGSIFNEYAMGWYRQAPGKERELVAAITNISGRKYYADSVKGRFTISRDNAKNTVYLQMNSLKPEDTAVYYCNARRTYTRPYIHSVYNYYYWGQGTEVTVSS | high polyreactivity
QFQLEESGGGLVQAGGSLRLSCAASGITFVDYAMGWYRQAPGKERELVAAITTGGSTNYADSVKGRFTISRDNAKNTVYLQMNSLKPEDTAVYYCNKRPVILYDYWGQGTQVTVSS | low polyreactivity
QFQLEESGGGLVQAGGSLRLSCAASGSTFWYNAMVWYIQATGKEMELVAAISSSGGSTYYADSVKGRFTISRDNAKYTVYLQMNSLKPEDSAVYYCNTRYVYTRGGTLKRDYLGQGTQVTVSS | high polyreactivity
QFQLEYSGGGLVQAGGSLRLSFASSGSTLARNAMGWYRQATVKERELVPSINGRTTRTYYADSVKGRFTISRDNAKNTVYLQMNSLKPEDTAVYYCAADPPGYVYGKRYYWGQGTQVTVSS | high polyreactivity
QFQLLESGGGLVQAGGSLRLSCAASGFISDVYAMGWYRQAPGKERELDAVITWRGSTYYADSVKGSFTISRDNAKNTVYLQMNSLKPEDTALYYCAAESQGDWAFDYWGQGTQVTVSS | low polyreactivity
QFQLVDSGGGLVQAGASLRLSCAASGFIFEWYTIGWSREAPGTAREFVARISSDGSTTYADSVKGRFTSSRDNAKNTVYLQMNSLKPEDTAVYYCADDVSYPGQKYIFDDWGQCTQVTVSS | low polyreactivity
QFQLVDSGGGLVQAGGSLRLSCAASGRIFSTNAMGWYRLAPGKEWELDAAINWSTGSYVLRRSVKGRFTISRDNAKNTVYLQMNSLKTEDTAVYYCAARVTVVGDYYWGQGTQVTVSS | high polyreactivity
QFQLVDSGGGLVQAGGSLRLSCAASGSTFYWYTMGWYREAPGKERELVATITSVGRTNYADSVKGRFTISRDNAKNTVYLEMNSLKPEDTAVYYCAASKARWPRGGSKYYDWGQGTQVTVSS | high polyreactivity
QFQLVDSGGGLVQAGGSLRLSCAATGSTQPGYAMGWYRQAPGKERELVAAITSRGGTTYYADSVKGRFTISCDNAKNTVYLQMNSLKPEDTAVYYCAPYTSYASDYWGQGTQVTVSS | high polyreactivity
